# Experimental data from article PMC3448610.
# T1: wild-type human Macrophage Migration Inhibitory Factor (human), P14174
# T1 chain: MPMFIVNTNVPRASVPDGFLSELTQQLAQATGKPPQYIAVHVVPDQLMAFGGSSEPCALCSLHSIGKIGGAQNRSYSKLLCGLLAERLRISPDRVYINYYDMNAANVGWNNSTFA
# Key:
# [1] = biological target: T1, wild-type human Macrophage Migration …; experiment: AUC; sedimentation velocity, 50,000 rpm, 20°C, PBS 1X pH 7.4, protein 5-50 µM (15 µM in Figure 3); c(s) analysis with SEDFIT; oligomeric state of the protein with itself; details: remark: other sources report otherwise
# [2] = biological target: T1, wild-type human Macrophage Migration …; experiment: static light scattering (multi-angle); purified MIF 20-30 µM in PBS 1X, room temperature, DAWN HELEOS II with UV and refractive index detectors; oligomeric state of the protein with itself; details: remark: other sources report otherwise
binder,measurement,setting,value
"wild-type human Macrophage Migration Inhibitory Factor, P14174 1-115 (natural protein) MPMFIVNTNVPRASVPDGFLSELTQQLAQATGKPPQYIAVHVVPDQLMAFGGSSEPCALCSLHSIGKIGGAQNRSYSKLLCGLLAERLRISPDRVYINYYDMNAANVGWNNSTFA",stoichiometry N,[1],3
same,stoichiometry N,[2],3
